Experimental data taken from publication PMC10033377 (Nature structural & molecular biology, 2023).

Legend:
[1] = target: the molecule itself; assay: SEC
[2] = target: the molecule itself; assay: negative stain EM

Protein	binding result [1]	binding result [2]
PRPS1-D52H (enzyme, human) MPNIKIFSGSSHQDLSQKIADRLGLELGKVVTKKFSNQETCVEIGESVRGEHVYIVQSGCGEINDNLMELLIMINACKIASASRVTAVIPCFPYARQDKKDKSRAPISAKLVANMLSVAGADHIITMDLHASQIQGFFDIPVDNLYAEPAVLKWIRENISEWRNCTIVSPDAGGAKRVTSIADRLNVDFALIHKERKKANEVDRMVLVGDVKDRVAILVDDMADTCGTICHAADKLLSAGATRVYAILTHGIFSGPAISRINNACFEAVVVTNTIPQEDKMKHCSKIQVIDISMILAEAIRRTHNGESVSYLFSHVPL	binds	
PRPS1-I290T (enzyme, human) MPNIKIFSGSSHQDLSQKIADRLGLELGKVVTKKFSNQETCVEIGESVRGEDVYIVQSGCGEINDNLMELLIMINACKIASASRVTAVIPCFPYARQDKKDKSRAPISAKLVANMLSVAGADHIITMDLHASQIQGFFDIPVDNLYAEPAVLKWIRENISEWRNCTIVSPDAGGAKRVTSIADRLNVDFALIHKERKKANEVDRMVLVGDVKDRVAILVDDMADTCGTICHAADKLLSAGATRVYAILTHGIFSGPAISRINNACFEAVVVTNTIPQEDKMKHCSKIQVTDISMILAEAIRRTHNGESVSYLFSHVPL		binds
PRPS1-S16P (enzyme, human) MPNIKIFSGSSHQDLPQKIADRLGLELGKVVTKKFSNQETCVEIGESVRGEDVYIVQSGCGEINDNLMELLIMINACKIASASRVTAVIPCFPYARQDKKDKSRAPISAKLVANMLSVAGADHIITMDLHASQIQGFFDIPVDNLYAEPAVLKWIRENISEWRNCTIVSPDAGGAKRVTSIADRLNVDFALIHKERKKANEVDRMVLVGDVKDRVAILVDDMADTCGTICHAADKLLSAGATRVYAILTHGIFSGPAISRINNACFEAVVVTNTIPQEDKMKHCSKIQVIDISMILAEAIRRTHNGESVSYLFSHVPL		binds
PRPS1-V309F (enzyme, human) MPNIKIFSGSSHQDLSQKIADRLGLELGKVVTKKFSNQETCVEIGESVRGEDVYIVQSGCGEINDNLMELLIMINACKIASASRVTAVIPCFPYARQDKKDKSRAPISAKLVANMLSVAGADHIITMDLHASQIQGFFDIPVDNLYAEPAVLKWIRENISEWRNCTIVSPDAGGAKRVTSIADRLNVDFALIHKERKKANEVDRMVLVGDVKDRVAILVDDMADTCGTICHAADKLLSAGATRVYAILTHGIFSGPAISRINNACFEAVVVTNTIPQEDKMKHCSKIQVIDISMILAEAIRRTHNGESFSYLFSHVPL		binds
